Target: Q13093
Assay: estimated from residual CAM activity after 10 days at 4 C against enzyme concentration (dilution inactivation); self-association

B1: recombinant lipoprotein-associated phospholipase A2 (rLp-PLA2) expressed in HEK293 cells (protein)
chain: FDWQYINPVAHMKSSAWVNKIQVLMAAASFGQTKIPRGNGPYSVGCTDLMFDHTNKGTFLRLYYPSQDNDRLDTLWIPNKEYFWGLSKFLGTHWLMGNILRLLFGSMTTPANWNSPLRPGEKYPLVVFSHGLGAFRTLYSAIGIDLASHGFIVAAVEHRDRSASATYYFKDQSAAEIGDKSWLYLRTLKQEEETHIRNEQVRQRAKECSQALSLILDIDHGKPVKNALDLKFDMEQLKDSIDREKIAVIGHSFGGATVIQTLSEDQRFRCGIALDAWMFPLGDEVYSRIPQPLFFINSEYFQYPANIIKMKKCYSPDKERKMITIRGSVHQNFADFTFATGKIIGHMLKLKGDIDSNVAIDLSNKASLAFLQKHLGLHKDFDQWDCLIEGDDENLIPGTNINTTNQHIMLQNSSGIEKYN
- concentration at which half is monomer and half aggregate or oligomer: At the concentration at 2.5 µg/ml or 53 nM, roughly half of rLp-PLA2 is in monomer and half forms the aggregate or oligomer as estimated

— patent publication US20150086999
